Experimental data taken from patent US20140087995A1 (published 2014).
Numbered stars: 1 amine (or outer) side, 2 acyl side, 3 side chain; on linkers, the order of the positions; unused ones are H or OH. Bridge positions count the residues as written; N and C are the ends. Side chains are listed from the residue outwards. Ends that are not written are not given here. * marks the point of attachment. C20 diacid = O=C(O)CCCCCCCCCCCCCCCCCCC(=O)*; γGlu = O=C(O)[C@H](CCC(=O)[*:2])N[*:1]

Experiments:
[1] = target: T1, human calcitonin receptor (human, UniProt P30988 25-474); assay: ratio of IC50 at hCTR over IC50 at hAmylin-R (SPA competition assays)
T1 construct: whole, on cells; Membranes of BHK cells stably transfected with the human calcitonin receptor (Assay VII); also called hCTR; hCT
T1 sequence (looked up): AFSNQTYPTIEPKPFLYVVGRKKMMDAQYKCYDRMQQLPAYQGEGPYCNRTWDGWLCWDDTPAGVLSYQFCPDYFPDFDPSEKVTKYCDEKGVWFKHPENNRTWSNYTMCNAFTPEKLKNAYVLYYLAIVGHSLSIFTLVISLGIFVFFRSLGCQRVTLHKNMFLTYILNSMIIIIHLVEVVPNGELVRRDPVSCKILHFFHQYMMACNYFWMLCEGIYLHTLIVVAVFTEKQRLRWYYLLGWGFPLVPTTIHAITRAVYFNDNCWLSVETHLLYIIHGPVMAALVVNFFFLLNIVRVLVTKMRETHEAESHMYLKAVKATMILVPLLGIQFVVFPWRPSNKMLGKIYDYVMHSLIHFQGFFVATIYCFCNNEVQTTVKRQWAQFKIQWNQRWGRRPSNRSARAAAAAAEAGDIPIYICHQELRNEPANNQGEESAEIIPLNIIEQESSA
Experimental: The resulting pellet was resuspended, homogenized and centrifuged (20.000 rpm, 15 min) in a buffer containing 20 mM Na-HEPES and 0.1 mM EDTA (pH 7.4, buffer 2). The resulting pellet was resuspended in buffer 2 and protein concentration was measured (BCA protein Assay, Pierce). The homogenate was kept cold during the whole procedure. The membranes were kept at −80° C. until use. The assay was performed in a 384 well Optiplate (PerkinElmer) in a total volume of 40 ul. Membranes were mixed with SPA beads. Final concentration of membranes 35 ng/μL final and SPA beads was 0.05 mg/well. Test-compounds were dissolved in DMSO and further diluted in assay buffer (50 mM Hepes, pH 7.4, 1 mM CaCl2, 5 mM MgCl₂, 0.1% OA and 0.02% Tween20). […] The final mixture was incubated with shaking at 400 rpm for 120 min at 25° C. prior to centrifugation (1500 rpm, 10 min). Samples were analyzed on TopCounter™ (Packard). The IC₅₀ was calculated using (one site binding competition analysis) GraphPad Prism5 as a measure of receptor affinity.
Membranes were prepared in the following way; the cells were rinsed with PBS and incubated with Versene for approximately 5 min before harvesting. The cells were flushed with PBS and the cell-suspension was centrifuged for 5 min at 1000 rpm. Cells were homogenized (Ultrathurrax) in a buffer containing 20 mM Na-HEPES and 10 mM EDTA (pH 7.4) and centrifuged at 20.000 rpm for 15 min. The resulting pellet was resuspended, homogenized and centrifuged (20.000 rpm, 15 min) in a buffer containing 20 mM Na-HEPES and 0.1 mM EDTA (pH 7.4, buffer 2). The resulting pellet was resuspended in buffer 2 and protein concentration was measured (BCA protein Assay, Pierce). The homogenate was kept cold during the whole procedure. The membranes were kept at −80° C. until use. Assay was performed in a 384 well Optiplate (PerkinElmer) in a total volume of 40 ul. Membranes were mixed with SPA beads.

[2] = target: T1, human calcitonin receptor; assay: SPA competition against 125I-calcitonin, membranes of BHK cells with human calcitonin receptor (Assay VII)
Experimental: Membranes were prepared in the following way; the cells were rinsed with PBS and incubated with Versene for approximately 5 min before harvesting. The cells were flushed with PBS and the cell-suspension was centrifuged for 5 min at 1000 rpm. Cells were homogenized (Ultrathurrax) in a buffer containing 20 mM Na-HEPES and 10 mM EDTA (pH 7.4) and centrifuged at 20.000 rpm for 15 min. The resulting pellet was resuspended, homogenized and centrifuged (20.000 rpm, 15 min) in a buffer containing 20 mM Na-HEPES and 0.1 mM EDTA (pH 7.4, buffer 2). The resulting pellet was resuspended in buffer 2 and protein concentration was measured (BCA protein Assay, Pierce). The homogenate was kept cold during the whole procedure. The membranes were kept at −80° C. until use. Assay was performed in a 384 well Optiplate (PerkinElmer) in a total volume of 40 ul. Membranes were mixed with SPA beads. Final concentration of membranes 35 ng/μL final and Final concentration of SPA beads was 0.05 mg/well. Test-compounds were dissolved in DMSO and further diluted in assay buffer (50 mM Hepes, pH 7.4, 1 mM CaCl2, 5 mM MgCl₂, 0.1% OA and 0.02% Tween20). […] The final mixture was incubated for 120 min with shaking at 400 rpm at 25° C. prior to centrifugation (1500 rpm, 10 min). Samples were analyzed on TopCounter™ (Packard). The […] was calculated using (one site binding competition analysis) GraphPad Prism5 as a measure of receptor affinity.

Row | Binder | Ratio hCT/hAmylin binding [1] | IC50 [2] [nM]
1 | K([γGlu-C20 diacid])CNTATCATQRLADFLRHSSPNFGAIPSSTNVGPRTY-NH2 (disulfide 2-7; N-terminus assumed; SMILES CC[C@H](C)[C@H](NC(=O)[C@H](C)NC(=O)CNC(=O)[C@H](Cc1ccccc1)NC(=O)[C@H](CC(N)=O)NC(=O)[C@@H]1CCCN1C(=O)[C@H](CO)NC(=O)[C@H](CO)NC(=O)[C@H](Cc1c[nH]cn1)NC(=O)[C@H](CCCNC(=N)N)NC(=O)[C@H](CC(C)C)NC(=O)[C@H](Cc1ccccc1)NC(=O)[C@H](CC(=O)O)NC(=O)[C@H](C)NC(=O)[C@H](CC(C)C)NC(=O)[C@H](CCCNC(=N)N)NC(=O)[C@H](CCC(N)=O)NC(=O)[C@@H](NC(=O)[C@H](C)NC(=O)[C@@H]1CSSC[C@H](NC(=O)[C@@H](N)CCCCNC(=O)CC[C@H](NC(=O)CCCCCCCCCCCCCCCCCCC(=O)O)C(=O)O)C(=O)N[C@@H](CC(N)=O)C(=O)N[C@@H]([C@@H](C)O)C(=O)N[C@@H](C)C(=O)N[C@@H]([C@@H](C)O)C(=O)N1)[C@@H](C)O)C(=O)N1CCC[C@H]1C(=O)N[C@@H](CO)C(=O)N[C@@H](CO)C(=O)N[C@H](C(=O)N[C@@H](CC(N)=O)C(=O)N[C@H](C(=O)NCC(=O)N1CCC[C@H]1C(=O)N[C@@H](CCCNC(=N)N)C(=O)N[C@H](C(=O)N[C@@H](Cc1ccc(O)cc1)C(N)=O)[C@@H](C)O)C(C)C)[C@@H](C)O) | 151 | 42.5
2 | K([γGlu-C20 diacid])CNTATCATQRLAEFLRHSSPNFGAIPSSTNVGHETY-NH2 (disulfide 2-7; N-terminus assumed; SMILES CC[C@H](C)[C@H](NC(=O)[C@H](C)NC(=O)CNC(=O)[C@H](Cc1ccccc1)NC(=O)[C@H](CC(N)=O)NC(=O)[C@@H]1CCCN1C(=O)[C@H](CO)NC(=O)[C@H](CO)NC(=O)[C@H](Cc1c[nH]cn1)NC(=O)[C@H](CCCNC(=N)N)NC(=O)[C@H](CC(C)C)NC(=O)[C@H](Cc1ccccc1)NC(=O)[C@H](CCC(=O)O)NC(=O)[C@H](C)NC(=O)[C@H](CC(C)C)NC(=O)[C@H](CCCNC(=N)N)NC(=O)[C@H](CCC(N)=O)NC(=O)[C@@H](NC(=O)[C@H](C)NC(=O)[C@@H]1CSSC[C@H](NC(=O)[C@@H](N)CCCCNC(=O)CC[C@H](NC(=O)CCCCCCCCCCCCCCCCCCC(=O)O)C(=O)O)C(=O)N[C@@H](CC(N)=O)C(=O)N[C@@H]([C@@H](C)O)C(=O)N[C@@H](C)C(=O)N[C@@H]([C@@H](C)O)C(=O)N1)[C@@H](C)O)C(=O)N1CCC[C@H]1C(=O)N[C@@H](CO)C(=O)N[C@@H](CO)C(=O)N[C@H](C(=O)N[C@@H](CC(N)=O)C(=O)N[C@H](C(=O)NCC(=O)N[C@@H](Cc1c[nH]cn1)C(=O)N[C@@H](CCC(=O)O)C(=O)N[C@H](C(=O)N[C@@H](Cc1ccc(O)cc1)C(N)=O)[C@@H](C)O)C(C)C)[C@@H](C)O, also called compound 107) | 11.1 | 4.28
3 | K([γGlu-C20 diacid])CNTATCATQRLAEFLRHSSPNFGAIPSSTNVGRETY-NH2 (disulfide 2-7; N-terminus assumed; SMILES CC[C@H](C)[C@H](NC(=O)[C@H](C)NC(=O)CNC(=O)[C@H](Cc1ccccc1)NC(=O)[C@H](CC(N)=O)NC(=O)[C@@H]1CCCN1C(=O)[C@H](CO)NC(=O)[C@H](CO)NC(=O)[C@H](Cc1c[nH]cn1)NC(=O)[C@H](CCCNC(=N)N)NC(=O)[C@H](CC(C)C)NC(=O)[C@H](Cc1ccccc1)NC(=O)[C@H](CCC(=O)O)NC(=O)[C@H](C)NC(=O)[C@H](CC(C)C)NC(=O)[C@H](CCCNC(=N)N)NC(=O)[C@H](CCC(N)=O)NC(=O)[C@@H](NC(=O)[C@H](C)NC(=O)[C@@H]1CSSC[C@H](NC(=O)[C@@H](N)CCCCNC(=O)CC[C@H](NC(=O)CCCCCCCCCCCCCCCCCCC(=O)O)C(=O)O)C(=O)N[C@@H](CC(N)=O)C(=O)N[C@@H]([C@@H](C)O)C(=O)N[C@@H](C)C(=O)N[C@@H]([C@@H](C)O)C(=O)N1)[C@@H](C)O)C(=O)N1CCC[C@H]1C(=O)N[C@@H](CO)C(=O)N[C@@H](CO)C(=O)N[C@H](C(=O)N[C@@H](CC(N)=O)C(=O)N[C@H](C(=O)NCC(=O)N[C@@H](CCCNC(=N)N)C(=O)N[C@@H](CCC(=O)O)C(=O)N[C@H](C(=O)N[C@@H](Cc1ccc(O)cc1)C(N)=O)[C@@H](C)O)C(C)C)[C@@H](C)O) | 28.5 | 6.62
4 | K([γGlu-C20 diacid])CNTATCATQRLADFLRHSSPNFGAIPSSTNVGPETY-NH2 (disulfide 2-7; N-terminus assumed; SMILES CC[C@H](C)[C@H](NC(=O)[C@H](C)NC(=O)CNC(=O)[C@H](Cc1ccccc1)NC(=O)[C@H](CC(N)=O)NC(=O)[C@@H]1CCCN1C(=O)[C@H](CO)NC(=O)[C@H](CO)NC(=O)[C@H](Cc1c[nH]cn1)NC(=O)[C@H](CCCNC(=N)N)NC(=O)[C@H](CC(C)C)NC(=O)[C@H](Cc1ccccc1)NC(=O)[C@H](CC(=O)O)NC(=O)[C@H](C)NC(=O)[C@H](CC(C)C)NC(=O)[C@H](CCCNC(=N)N)NC(=O)[C@H](CCC(N)=O)NC(=O)[C@@H](NC(=O)[C@H](C)NC(=O)[C@@H]1CSSC[C@H](NC(=O)[C@@H](N)CCCCNC(=O)CC[C@H](NC(=O)CCCCCCCCCCCCCCCCCCC(=O)O)C(=O)O)C(=O)N[C@@H](CC(N)=O)C(=O)N[C@@H]([C@@H](C)O)C(=O)N[C@@H](C)C(=O)N[C@@H]([C@@H](C)O)C(=O)N1)[C@@H](C)O)C(=O)N1CCC[C@H]1C(=O)N[C@@H](CO)C(=O)N[C@@H](CO)C(=O)N[C@H](C(=O)N[C@@H](CC(N)=O)C(=O)N[C@H](C(=O)NCC(=O)N1CCC[C@H]1C(=O)N[C@@H](CCC(=O)O)C(=O)N[C@H](C(=O)N[C@@H](Cc1ccc(O)cc1)C(N)=O)[C@@H](C)O)C(C)C)[C@@H](C)O) | 16.7 | 3.27
